What was measured:
NLRC3 FL recombinant [1] = target: T1, NLRC3 FL recombinant (human, UniProt Q7RTR2 1-1065); assay: SPR
T1 sequence: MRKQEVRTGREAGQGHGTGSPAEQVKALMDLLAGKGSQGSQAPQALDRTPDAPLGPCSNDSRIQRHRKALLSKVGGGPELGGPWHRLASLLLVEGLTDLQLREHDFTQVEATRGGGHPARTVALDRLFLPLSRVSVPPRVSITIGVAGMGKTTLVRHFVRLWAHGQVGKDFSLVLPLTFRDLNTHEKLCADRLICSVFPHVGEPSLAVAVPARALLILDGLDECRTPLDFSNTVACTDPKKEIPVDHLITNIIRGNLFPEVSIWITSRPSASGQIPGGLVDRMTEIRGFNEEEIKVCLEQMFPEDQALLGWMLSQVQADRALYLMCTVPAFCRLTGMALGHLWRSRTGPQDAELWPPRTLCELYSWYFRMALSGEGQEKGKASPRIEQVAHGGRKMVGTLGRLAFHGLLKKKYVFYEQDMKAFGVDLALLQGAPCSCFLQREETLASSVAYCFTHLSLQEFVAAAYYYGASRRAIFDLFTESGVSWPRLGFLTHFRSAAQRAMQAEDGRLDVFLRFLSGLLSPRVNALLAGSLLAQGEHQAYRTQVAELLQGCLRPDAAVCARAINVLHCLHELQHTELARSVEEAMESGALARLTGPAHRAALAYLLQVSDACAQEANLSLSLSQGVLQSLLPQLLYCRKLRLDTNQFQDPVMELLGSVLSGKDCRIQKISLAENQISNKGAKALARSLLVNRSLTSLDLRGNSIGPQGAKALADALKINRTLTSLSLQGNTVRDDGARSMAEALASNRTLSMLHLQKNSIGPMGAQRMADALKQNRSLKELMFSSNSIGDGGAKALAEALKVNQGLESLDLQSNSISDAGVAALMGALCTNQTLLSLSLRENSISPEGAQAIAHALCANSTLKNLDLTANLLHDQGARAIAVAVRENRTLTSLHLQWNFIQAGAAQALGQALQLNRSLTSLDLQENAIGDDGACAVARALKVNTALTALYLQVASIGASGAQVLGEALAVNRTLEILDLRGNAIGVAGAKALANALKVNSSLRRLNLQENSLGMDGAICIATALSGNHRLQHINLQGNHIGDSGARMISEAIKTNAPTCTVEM

STING 155-341 [2] = target: T2, STING 155-341 (human, UniProt Q86WV6 155-341); assay: SPR
T2 sequence (Q86WV6 155-341): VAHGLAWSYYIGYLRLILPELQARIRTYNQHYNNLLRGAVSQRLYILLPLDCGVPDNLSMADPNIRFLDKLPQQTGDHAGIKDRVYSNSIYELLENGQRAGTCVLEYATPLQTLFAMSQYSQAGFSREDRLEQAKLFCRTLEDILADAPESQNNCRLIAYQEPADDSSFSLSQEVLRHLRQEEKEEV

NLRC3 NBD recombinant = target: T3, NLRC3 NBD recombinant (human, UniProt Q7RTR2 139-460); assay: pull-down
T3 sequence: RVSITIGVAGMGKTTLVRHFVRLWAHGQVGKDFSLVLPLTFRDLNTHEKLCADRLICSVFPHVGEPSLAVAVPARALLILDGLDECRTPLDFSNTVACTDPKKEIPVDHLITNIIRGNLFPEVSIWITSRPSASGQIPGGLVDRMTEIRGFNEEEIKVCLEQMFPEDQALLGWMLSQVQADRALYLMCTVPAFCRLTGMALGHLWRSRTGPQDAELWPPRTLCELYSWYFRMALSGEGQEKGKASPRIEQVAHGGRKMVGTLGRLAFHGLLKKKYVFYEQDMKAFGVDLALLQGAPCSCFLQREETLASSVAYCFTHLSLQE

cGAS FL recombinant = cGAS FL recombinant (mouse, UniProt Q8C6L5 1-507); assay: EMSA
cGAS FL recombinant, sequence (Q8C6L5 whole entry): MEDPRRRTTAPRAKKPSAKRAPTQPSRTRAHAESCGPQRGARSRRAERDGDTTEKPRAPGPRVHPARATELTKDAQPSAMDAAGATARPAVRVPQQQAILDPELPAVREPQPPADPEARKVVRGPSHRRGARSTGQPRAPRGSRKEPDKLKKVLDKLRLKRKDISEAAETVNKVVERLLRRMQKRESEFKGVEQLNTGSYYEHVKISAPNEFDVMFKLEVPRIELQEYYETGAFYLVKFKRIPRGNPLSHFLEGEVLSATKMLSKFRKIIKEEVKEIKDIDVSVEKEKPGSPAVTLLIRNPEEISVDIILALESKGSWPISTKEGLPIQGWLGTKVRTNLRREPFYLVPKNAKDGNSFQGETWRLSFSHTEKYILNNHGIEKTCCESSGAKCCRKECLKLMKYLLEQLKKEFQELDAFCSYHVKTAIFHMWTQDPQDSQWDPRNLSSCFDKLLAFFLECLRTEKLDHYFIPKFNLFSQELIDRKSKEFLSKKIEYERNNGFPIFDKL

NLRX1 FL recombinant [3] = target: T4, NLRX1 FL recombinant (human, UniProt Q86UT6 1-975); assay: EMSA
T4 sequence (Q86UT6 whole entry): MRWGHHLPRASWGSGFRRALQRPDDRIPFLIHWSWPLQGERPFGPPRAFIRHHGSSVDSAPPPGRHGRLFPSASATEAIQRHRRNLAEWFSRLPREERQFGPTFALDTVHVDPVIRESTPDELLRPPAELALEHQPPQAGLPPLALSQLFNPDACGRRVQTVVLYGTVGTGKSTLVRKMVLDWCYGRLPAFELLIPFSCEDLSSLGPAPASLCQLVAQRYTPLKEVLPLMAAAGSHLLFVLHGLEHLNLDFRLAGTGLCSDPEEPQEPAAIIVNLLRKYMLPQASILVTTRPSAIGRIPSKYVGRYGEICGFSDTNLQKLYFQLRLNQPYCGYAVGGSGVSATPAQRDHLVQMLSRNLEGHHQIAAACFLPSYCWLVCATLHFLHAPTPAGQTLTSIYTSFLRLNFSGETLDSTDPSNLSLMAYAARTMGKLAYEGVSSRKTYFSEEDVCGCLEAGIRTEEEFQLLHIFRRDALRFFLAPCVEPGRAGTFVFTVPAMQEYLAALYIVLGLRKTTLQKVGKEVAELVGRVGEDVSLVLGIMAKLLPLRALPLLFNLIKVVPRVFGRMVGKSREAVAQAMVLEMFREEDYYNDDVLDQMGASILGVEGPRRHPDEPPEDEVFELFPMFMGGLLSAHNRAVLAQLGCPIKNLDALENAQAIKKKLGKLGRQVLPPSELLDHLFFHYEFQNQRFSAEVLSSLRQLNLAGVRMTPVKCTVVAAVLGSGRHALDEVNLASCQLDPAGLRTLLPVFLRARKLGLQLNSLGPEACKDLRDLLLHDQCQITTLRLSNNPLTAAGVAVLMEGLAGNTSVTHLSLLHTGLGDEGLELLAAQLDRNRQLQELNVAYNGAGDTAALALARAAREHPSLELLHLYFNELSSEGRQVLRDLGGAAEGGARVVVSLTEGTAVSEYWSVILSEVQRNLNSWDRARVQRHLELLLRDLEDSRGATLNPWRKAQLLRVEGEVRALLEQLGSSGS

STING 155-341 [4] = target: T2, STING 155-341; assay: gel filtration
NLRC3 FL recombinant [5] = target: T1, NLRC3 FL recombinant; assay: pull-down
NLRX1 FL recombinant [6] = target: T4, NLRX1 FL recombinant; assay: pull-down
NLRX1 FL recombinant [7] = target: T4, NLRX1 FL recombinant; assay: SPR

B1: HSV-60 dsDNA (dsDNA)
DNA 1: TAAGACACGATGCGATAAAATCTGTTTGTAAAATTTATTAAGGGTACAAATTGCCCTAGC
DNA 2: GCTAGGGCAATTTGTACCCTTAATAAATTTTACAAACAGATTTTATCGCATCGTGTCTTA
Kd (NLRC3 FL recombinant [1]): 3 nM
binding result (STING 155-341 [2]): no binding
binding result (NLRC3 NBD recombinant): no binding
binding result (cGAS FL recombinant): binds
binding result (NLRX1 FL recombinant [3]): no binding

B2: HSV-60 DNA-RNA hybrid (DNA:RNA)
DNA: TAAGACACGATGCGATAAAATCTGTTTGTAAAATTTATTAAGGGTACAAATTGCCCTAGC
RNA: GCUAGGGCAAUUUGUACCCUUAAUAAAUUUUACAAACAGAUUUUAUCGCAUCGUGUCUUA
binding result (NLRC3 FL recombinant [1]): binds

B3: HSV-60 dsDNA unlabelled (dsDNA)
DNA 1: TAAGACACGATGCGATAAAATCTGTTTGTAAAATTTATTAAGGGTACAAATTGCCCTAGC
DNA 2: GCTAGGGCAATTTGTACCCTTAATAAATTTTACAAACAGATTTTATCGCATCGTGTCTTA
binding result (STING 155-341 [4]): no binding

B4: HSV-60 ssDNA (ssDNA)
DNA: TAAGACACGATGCGATAAAATCTGTTTGTAAAATTTATTAAGGGTACAAATTGCCCTAGC
binding result (NLRC3 FL recombinant [1]): binds

B5: HSV-15 dsDNA (dsDNA)
DNA 1: TAAGACACGATGCGA
DNA 2: TCGCATCGTGTCTTA
binding result (NLRC3 FL recombinant [5]): binds
binding result (NLRX1 FL recombinant [6]): no binding

B6: HSV-60 dsRNA (dsRNA)
RNA 1: UAAGACACGAUGCGAUAAAAUCUGUUUGUAAAAUUUAUUAAGGGUACAAAUUGCCCUAGC
RNA 2: GCUAGGGCAAUUUGUACCCUUAAUAAAUUUUACAAACAGAUUUUAUCGCAUCGUGUCUUA
binding result (NLRX1 FL recombinant [7]): binds
